# Patent publication US20070099248A1
# Target: biotinylated AP-neuroligin-1 on rat hippocampal neurons (mouse neuroligin-1 with acceptor peptide at the N-terminus, biotinylated with biotin ligase) (mouse) (UniProt Q99K10)
# Experiment: cell-based or functional assay
# Chain of biotinylated AP-neuroligin-1 on rat hippocampal neurons (mouse neuroligin-1 with acceptor peptide at the N-terminus, biotinylated with biotin ligase) (mouse) (Q99K10 46-843, form in doubt): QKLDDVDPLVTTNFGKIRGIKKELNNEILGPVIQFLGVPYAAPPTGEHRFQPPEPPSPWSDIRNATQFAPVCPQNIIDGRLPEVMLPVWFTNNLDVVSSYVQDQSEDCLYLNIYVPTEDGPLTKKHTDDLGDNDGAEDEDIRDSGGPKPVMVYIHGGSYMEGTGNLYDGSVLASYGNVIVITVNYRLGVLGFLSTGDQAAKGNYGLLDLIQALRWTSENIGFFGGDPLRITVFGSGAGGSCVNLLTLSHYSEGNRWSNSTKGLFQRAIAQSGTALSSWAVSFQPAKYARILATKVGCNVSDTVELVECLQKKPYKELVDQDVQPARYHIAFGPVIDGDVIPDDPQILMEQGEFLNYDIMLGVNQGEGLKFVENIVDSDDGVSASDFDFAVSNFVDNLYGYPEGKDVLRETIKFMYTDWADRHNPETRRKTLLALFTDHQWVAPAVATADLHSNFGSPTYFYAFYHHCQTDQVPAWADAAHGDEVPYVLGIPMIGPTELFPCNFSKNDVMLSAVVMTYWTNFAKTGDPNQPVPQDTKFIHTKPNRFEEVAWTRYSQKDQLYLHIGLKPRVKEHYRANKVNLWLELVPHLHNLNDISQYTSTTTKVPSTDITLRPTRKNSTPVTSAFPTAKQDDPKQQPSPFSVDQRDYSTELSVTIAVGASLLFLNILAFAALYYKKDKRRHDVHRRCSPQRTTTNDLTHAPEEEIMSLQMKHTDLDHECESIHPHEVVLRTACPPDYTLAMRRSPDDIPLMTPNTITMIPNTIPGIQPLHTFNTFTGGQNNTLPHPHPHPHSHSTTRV
row,clusters/µm of dendrite after two hour incubation [clusters/µm],Substance
1,0.266,Alexa Fluor 568-conjugated wild-type streptavidin (Molecular Probes) (from UniProt P22629 37-163)
2,0.087,"monovalent streptavidin A1D3 (one Alive subunit with His6 tag, three Dead subunits), Alexa Fluor 568-conjugated (designed binder)"
